B1: Defective in germ line development protein 3 (Caenorhabditis elegans), Q95ZK7-1 (parent)
chain: MGEQSHEKDHDEAHSYNPFVRSAVEYDADTRLQMAENAASARKLFVSSALKDIIVNPENFYHDFQQSAQMAEDANQRRQVSYNTKREAHIHQLKAQGLPLPSNIPMIEINPTRVTLNMEFESQYYSLMTSDNGDHENVASIMAETNTLIQLPDRSVGGTTPDPFAQQVTITGYFGDVDRARMLMRRNCHFTVFMALSKMKMPLHELQAHVRQNPIQNVEMSFVDAPEKNGIVTTYLRITAREKNQHELIEAAKRLNEILFRESPAPENNFTLHFTLSTYYVDQVLGSSSTAQLMPVIERETTTIISYPCYNNRNETRGNIYEIKVVGNIDNVLKARRYIMDLLPISMCFNIKNTDMAEPSRVSDRNIHMIIDESGIILKMTPSVYEPADLLSGEVPLNCASLRSKEFNIKKLYTAYQKVLSKKFDFIAPQPNDYDNSIWHHSLPANFLKNFNMPCRGELSDGSNGRRHRSSSIASSRSKHSYMSKGKQFSESSGGPSRSHTRVSSFSENSSTVPIMQFPTPHFAPPMLTPHHHMLKYVYLQQHQQAQTFLKGAAGLHPGTHIMFPPPIIVDGSFVSALPFADPVVFDGFPYVHGLFPVNEAEQHRNHRESSPSLRSTQEIRKPSRNMGNRPSSSTGSYYPSTTPRQRVYEQVREDDLRSHIGSRRTSVNGDDQNVESMHDQGYERQYPRQHQRLQKDDQQRWKTGSRGDIHSSRTINVHRDVRNSNEYDFHVGNSGPAKRSPSLEQVQLQMTHHLKLKSNDVDLDHEKLYMHESPHNDSDTTVSASGFGNDLMDGDFVQRFLSNANINESGRRPRTVSCFTEKDGQSARYIDSDGAYSVVDHASTHQSRSYDSFRKVGDNGVTKTILEPRARVEKDYGKISLEHKTKYSNEYGDEEKSAENDTSSLGSRQYRIDPMKLIASVRESSEQLPRIHERQFSDVLNEKEKEIADKSIESTVTQDLSLDETSTY
partner: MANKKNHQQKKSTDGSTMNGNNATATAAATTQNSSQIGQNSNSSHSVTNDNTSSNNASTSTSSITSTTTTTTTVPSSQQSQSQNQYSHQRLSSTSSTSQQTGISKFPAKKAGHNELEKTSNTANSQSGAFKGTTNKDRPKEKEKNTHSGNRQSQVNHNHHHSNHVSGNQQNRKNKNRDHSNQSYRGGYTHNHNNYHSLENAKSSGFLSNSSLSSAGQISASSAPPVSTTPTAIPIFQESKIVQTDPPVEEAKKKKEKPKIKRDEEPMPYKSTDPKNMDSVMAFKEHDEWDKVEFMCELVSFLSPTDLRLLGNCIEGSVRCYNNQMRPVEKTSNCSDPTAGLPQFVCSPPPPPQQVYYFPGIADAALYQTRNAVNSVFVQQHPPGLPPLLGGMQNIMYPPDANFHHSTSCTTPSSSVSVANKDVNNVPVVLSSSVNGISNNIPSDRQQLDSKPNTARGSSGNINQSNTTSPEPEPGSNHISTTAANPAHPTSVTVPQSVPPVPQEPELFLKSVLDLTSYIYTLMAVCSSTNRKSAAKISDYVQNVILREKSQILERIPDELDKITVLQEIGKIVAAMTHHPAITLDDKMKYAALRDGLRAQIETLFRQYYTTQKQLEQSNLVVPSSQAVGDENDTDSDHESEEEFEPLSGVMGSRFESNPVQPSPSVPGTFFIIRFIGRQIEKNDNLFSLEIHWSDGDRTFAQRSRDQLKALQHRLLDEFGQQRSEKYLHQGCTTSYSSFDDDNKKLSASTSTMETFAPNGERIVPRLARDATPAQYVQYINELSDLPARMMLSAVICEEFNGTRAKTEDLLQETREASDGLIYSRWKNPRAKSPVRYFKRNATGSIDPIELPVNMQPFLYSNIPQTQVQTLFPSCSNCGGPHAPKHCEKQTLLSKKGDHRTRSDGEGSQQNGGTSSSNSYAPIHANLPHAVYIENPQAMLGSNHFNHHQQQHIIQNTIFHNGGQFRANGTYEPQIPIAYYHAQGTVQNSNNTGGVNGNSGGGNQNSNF

Variants of: B1
Settings: with gls-1, Q8I4M5-3

effect of a mutation on the interaction	Variant
disrupting interaction strength	G327R

Reference: IntAct's records for PubMed 19461891
